According to patent US20140170125A1, “USE OF CARDIOTROPHIN-1 FOR THE TREATMENT OF KIDNEY DISEASES” (DIGNA Biotech, S.L., priority 2011, published 2014):
“Also recorded” adds a separate entry of the source.

What was measured:
[1] = tested on: acute kidney injury produced by gentamicin; experiment: Acute kidney injury produced by gentamicin; conditions: for urinary flow: administered separately, vs control group (C); for reactive bands to the anti KIM-1 antibody in the urine / renal levels of KIM-1 (Western blot): vs controls; for survival: until the end of the experiment
[2] = tested on: experimental model of iodinated contrast nephropathy; experiment: Contrast-induced nephropathy: Gastrografin in rats sensitized with subtoxic gentamicin; conditions: for KIM-1 in the urine (Western blot): in comparison with the controls; for general condition (appearance, mobility): throughout the experiment; for survival: until the end of the experiment (four days after contrast); for PAI-1 in the urine (Western blot): vs control group
Method: The rats were placed in individual metabolic cages where they had free access to food and drink. After two days of acclimatization, the 24-hour urine was collected in graduated cylinders. The urine collected was centrifuged during 8 minutes at 2,500 rpm, to clean it from residues not thereof, the clean urine was collected and it was stored at −80° C. for its later analysis.
The blood samples were obtained in capillaries with heparin by a small cut at the end of the tail. Five capillaries were extracted per rat (200 μL), and the capillaries were centrifuged in a microcentrifuge at 11,000 rpm during three minutes. Once centrifuged, the capillaries were broken with the aid of a file, by the cells-plasma limit. The plasma was extracted and stored in eppendorf tubes at −80° C. for its later analysis.
To measure kidney function, the plasma concentrations of creatinine and creatinine clearance, which is a measurement of the glomerular filtration rate, were determined. The creatinine clearance (CrCl) was calculated from the formula CrCl=UF×CrU/CrP, where UF is the urinary flow (ml/min), CrU the creatinine concentration in urine (mg/ml) and CrP the creatinine concentration in plasma (mg/ml). The creatinine concentration in urine and in plasma were measured by a semiautomatic analyser (Reflotron, Roche).
The concentration of urea in plasma was measured by specific reactive strips of a commercial kit, using a semiautomatic analyser (Reflotron, Roche).
The concentration of proteins in urine (proteinuria) was measured by Bradford's colorimetric method (Anal Biochem. 1976; 72:248-54). The urinary excretion of proteins (UEprot) in 24 hours was calculated by the formula: UEprot=Cprot×FU24 h, where Cprot is the concentration of proteins in urine (mg/mL) and FU24 h the urinary flow of 24 hours (mL/day).
For its determination a commercial kit from Roche was used, following the manufacturer's specifications, and the results were analysed with the KC-Junior software.
In the Western Blot technique, 100 μg of protein of the total of the renal tissue homogenate or a volume of urine of each animal which corresponds to the excretion fraction were loaded in a polyacrylamide gel. After separation by electrophoresis, these proteins were transferred to a PVDF membrane (Inmobilon-P #IPVH00010, Madrid, Spain), and they were hybridized with antibodies against KIM-1 (R&D Systems) and NGAL (MBL).
An experimental model of iodinated contrast nephropathy was used, consisting of the intravenous administration of the iodinated contrast Gastrografin (Bayer C. N. 909622 EXO) to rats predisposed to suffering acute kidney failure.
The experiment was performed on 32 male Wistar rats of around 220 grams in weight. The environmental conditions of the animals were kept constant: temperature of around 20° C., humidity of approximately 60% and daily light period (photoperiod) of 12 hours.
Six experimental groups were considered in the design study:
Control group (C): rats administered saline solution (n=5).
Cardiotrophin group (CT-1): rats administered cardiotrophin i.v. (100 μg/Kg/day) the day before the administration of the contrast and in the four subsequent days (n=5).
Gastrografin group (Gg): rats administered a single dose of iodinated agent i.v. (10 mL/Kg; […]) (n=5).
The animals were housed in metabolic cages in order to collect the urine free of faeces. Likewise, a blood sample was obtained every day (0.150 ml) from the tail in heparized capillaries.
At the end of the experiments (four days after administration of the iodinated contrast) the rats were anaesthetized and, later, they were perfused with heparinized saline solution. The kidneys were obtained from these animals and part of the samples was introduced in formol to perform histological studies whilst another part was ultrafrozen for the tissue studies.
The studies performed were the following:
Plasma creatinine, Plasma urea, proteinuria, microalbuminuria
Creatinine clearance in metabolic cages

[3] = tested on: rats subjected to 60 minutes of left renal ischemia; experiment: Acute kidney injury produced by renal ischemia/reperfusion (60 minutes of left renal ischemia); type: in vivo
[4] = tested on: cisplatin-induced kidney injury; experiment: Acute kidney injury produced by cisplatin; type: in vivo, Wistar rats
Method: The urinary flow (mL/day) was evaluated measuring the graduated receptacles containing the 24-hour urine in the metabolic cages as indicated in the obtainment of urine.
The experiment was performed in 24 male Wistar rats of around 220 grams in weight.
The animals were divided in 4 experimental groups, comprising 6 rats per group. […] The experimental design was developed as described below:
Group I (Control, C, n=6 animals) animals treated with vehicle via i.v. during 7 days.
Group II (Cardiotrophin-1, CT-1, n=6 animals) animals administered a daily dose of cardiotrophin-1 of 100 μg/kg body weight via i.v. during 7 days.

[5] = agents without CT-1 protection or alone, vs control
[6] = 4 hours after reperfusion, elevation induced by IR
[7] = group Gg+G+CT-1, CT-1 100 μg/Kg/day i.v.

gentamicin [reference compound]
urinary flow [1]: Neither G nor CT-1, administered separately, modified the urinary flow
general condition (appearance, mobility) ([1]; agent alone): more deteriorated appearance, reduced mobility and slight colouring of the hair
proteinuria ([1]; agent alone): high proteinuria
reactive bands to the anti KIM-1 antibody in the urine ([1]; agent alone): clear increase
renal levels of KIM-1 (Western blot) ([1]; agent alone): clear increase
liver weight (with respect to the body weight) ([1]; at the time of sacrifice): tendency for relative weight reduction
renal and urinary NGAL (Western blot) ([1]; end of treatments): induce an increase
renal cortex histology (hematoxylin-eosin) ([1]; gentamicin alone, end of treatments): massive tubular necrosis
survival [1]: one animal from each group died
body weight ([1]; vs control and CT-1 groups): slight decrease
proteinuria [2, 5]: did not alter
KIM-1 in the urine (Western blot) [2]: produced no effect
general condition (appearance, mobility) [2]: healthy appearance and normal mobility
survival [2]: all animals survived until the end of the experiment
PAI-1 in the urine (Western blot) [2]: not different from the control group animals

B1: CT-1: cytokine belonging to the interleukin 6 family; recombinant human CT-1 or rat cardiotrophin-1 administered i.v. (protein, UniProt Q16619 1-201, looked up)
Cardiotrophin-1: MSRREGSLEDPQTDSSVSLLPHLEAKIRQTHSLAHLLTKYAEQLLQEYVQLQGDPFGLPSFSPPRLPVAGLSAPAPSHAGLPVHERLRLDAAALAALPPLLDAVCRRQAELNPRAPRLLRRLEDAARQARALGAAVEALLAALGAANRGPRAEPPAATASAASATGVFPAKVLGLRVCGLYREWLSRTEGDLGQLLPGGSA
gentamicin-induced symptoms (appearance, mobility, hair) in group G+CT-1 ([1]; CT-1 100 μg/kg/day i.v. 7 days + gentamicin 150 mg/kg/day i.p. 6 days): significantly reduced
effect on the decrease in creatinine clearance produced by G ([1]; CT-1 together with G): partially reversed
effect on the increase in plasma creatinine produced by G ([1]; CT-1 together with G): partially reversed
effect on the increase in plasma urea concentration produced by G ([1]; CT-1 together with G): partially reversed
effect on the proteinuria produced by G ([1]; CT-1 together with G): partially reversed
urinary flow [1]: Neither G nor CT-1, administered separately, modified the urinary flow
creatinine clearance ([1]; agent alone): did not alter
general condition (appearance, mobility) ([1]; agent alone): healthy appearance and normal mobility
plasma creatinine ([1]; agent alone): did not alter
proteinuria ([1]; agent alone): did not alter
urea plasma concentration ([1]; agent alone): did not alter
reactive bands to the anti KIM-1 antibody in the urine ([1]; agent alone): does not produce any effect
renal levels of KIM-1 (Western blot) ([1]; agent alone): does not produce any effect
liver weight (with respect to the body weight) ([1]; at the time of sacrifice): certain hepatomegaly
spleen weight (with respect to the body weight) ([1]; at the time of sacrifice): marked splenomegaly
systolic blood pressure (SBP) ([1]; basal vs end of treatments (d 6)): not observed
extension of gentamicin tubular damage under cotreatment (histology) ([1]; cotreatment with CT-1): moderately and partially prevents the extension of tubular damage
renal and urinary NGAL (Western blot) ([1]; end of treatments): induce an increase
effect on the increase in NAG excretion produced by G ([1]; especially the submaximal of the first days): reduces this increase
effect on the increase in KIM-1 expression in the kidney that G produces ([1]; group G+CT-1): does not appreciably decrease
effect on the weight loss produced by G ([1]; group G+CT-1): partially mitigated
upper band (approx. 90 kDa) of KIM-1 in the urine under G with CT-1 ([1]; group G+CT-1): partially decreases
effect on acute kidney injury produced by gentamicin (conclusion) ([1]; recombinant human CT-1 i.v. 100 μg/kg/day, 7 days): protective effect
survival [1]: all animals survived until the end of the experiment
decrease of plasma levels of IL-6 after ischemia and reperfusion ([3]; 4 hours after reperfusion): not observed
decrease of plasma levels of IL-10 after ischemia and reperfusion ([3]; 4 hours after reperfusion): not observed
plasma levels of IFN-γ [3, 6]: blocked the elevation
plasma levels of IL-1β [3, 6]: blocked the elevation
plasma levels of TNF-α [3, 6]: blocked the elevation
obstructed tubules and vacuolated cells (histology) ([3]; 24 hours after reperfusion, vs control kidneys): less abundant
creatinine clearance ([3]; 48 hours after I/R, vs IR C): significantly higher
plasma creatinine ([3]; 48 hours after I/R, vs IR C, no significant differences vs simulated group): markedly lower
denuded tubules and inflammatory infiltration (histology) ([3]; 48 hours after reperfusion, vs control kidneys): less abundant
mortality ([3]; 14 days after the I/R, CT-1 400 μg/kg, untreated ischemic group 40%): 20%
acute kidney injury induced by ischemia/reperfusion (conclusion) ([3]; also decrease in kidney function, oxidative stress and inflammation): prevents acute kidney injury
renal levels of superoxide anion (SOA) ([3]; four hours after reperfusion, vs ischemic control group, significantly greater than simulated group): significantly less
creatinine clearance [2, 5]: did not alter
plasma concentration of creatinine [2, 5]: did not alter
proteinuria [2, 5]: did not alter
urea plasma concentration [2, 5]: did not alter
effect on the RPF decrease produced by Gg+G ([2]; co-treatment with CT-1): reversal
effect on the RVR increase produced by gentamicin and gastrografin ([2]; coadministration of CT-1): counteracted the increase
PAI-1 in the urine under Gg+G with CT-1 ([2]; group Gg+G+CT-1): does not appear
effect on the GFR decrease produced by Gg+G ([2]; group Gg+G+CT-1): reversed
effect on the NAG increase produced by Gg+G ([2]; group Gg+G+CT-1): reduced this increase
effect on the decrease in creatinine clearance produced by Gg+G [2, 7]: partially reversed
effect on the increase in plasma concentration of creatinine produced by Gg+G [2, 7]: partially reversed
effect on the increase in plasma urea produced by Gg+G [2, 7]: partially reversed
effect on the proteinuria produced by Gg+G [2, 7]: partially reversed
KIM-1 in the urine (Western blot) [2]: produced no effect
deterioration of renal excretory function and intensity of tubular damage (conclusion) ([2]; recombinant human CT-1 i.v. 100 μg/kg/day, contrast nephropathy in animals sensitized with gentamicin): reduces
general condition (appearance, mobility) [2]: healthy appearance and normal mobility
survival [2]: all animals survived until the end of the experiment
effect on the increase in KIM-1 expression produced by Gg+G ([2]; urine, Western blot, group Gg+G+CT-1): considerably decreases the increase
PAI-1 in the urine (Western blot) [2]: not different from the control group animals
body weight ([4]; agent alone, vs control group): without apparent differences; also recorded: does not show changes
plasma creatinine ([4]; agent alone, vs control group): does not reflect changes
cisplatin-induced reduction in body weight under joint treatment ([4]; cardiotrophin-1 100 μg/kg i.v. 7 days + cisplatin 6 mg/kg i.p., vs cisplatin): significantly less
cisplatin-induced increase in plasma creatinine under joint treatment ([4]; cardiotrophin-1 100 μg/kg i.v. 7 days + cisplatin 6 mg/kg, vs cisplatin): significantly less
physical condition during coadministration with cisplatin ([4]; cardiotrophin-1 + cisplatin): spectacular improvement
cisplatin-induced increase in final kidney weight under joint treatment ([4]; cardiotrophin-1 + cisplatin, vs cisplatin): substantially less
effect on cisplatin-induced kidney injury (conclusion) ([4]; rat cardiotrophin-1 100 μg/kg/day i.v. 7 days, cisplatin 6 mg/kg): protective effect
survival ([4]; throughout the experimental period, vs control group): does not modify the survival
urinary flow under joint administration with cisplatin ([4]; without significant differences vs control and cardiotrophin-1 groups): constant evolution
